How the values were obtained:
[1] = biological target: unknown target molecule expressed on the plasma membranes of human HCC cells; experiment: in vivo competition, 100 ug SP94 co-injected with 2x10^9 pfu PC94 (competitor of PC94), Mahlavu xenograft; phage recovered from tumor
[2] = biological target: unknown target molecule expressed on the plasma membranes of human HCC cells; experiment: flow cytometry on HCC cell lines Changliver and J5 (range over the two lines); set-up: concentration or dose not given beside the values
[3] = biological target: unknown target molecule expressed on the plasma membranes of human HCC cells
[4] = biological target: unknown target molecule expressed on the plasma membranes of human HCC cells; experiment: flow cytometry on HCC cell line HA22T; set-up: concentration or dose not given beside the values
[5] = biological target: unknown target molecule expressed on the plasma membranes of human HCC cells; experiment: flow cytometry on HCC cell lines Mahlavu, 59T, Hep3B, HepG2, NTUBL and SKHepl (range over the six lines); set-up: concentration or dose not given beside the values

B1: SP94 synthetic peptide (…) (peptide)
peptide: SFSIIHTPILPL
percent inhibition of PC94 binding to tumor tissue [1]: 88%

B2: phage clone 94 (PC94) (peptide, not shown: large carriers)
peptide: SFSIIHTPILPL
percent reactive cells (FACS) [2]: 25.7 to 31.9%
fold binding activity over control phage [3]: 8 fold
percent reactive cells (FACS) [4]: 19.1%
percent reactive cells (FACS) [5]: 47 to 81.2%

From patent US20090136418A1
